In one series the target is Factor Xa (UniProt P00742). Briefly: cell-based or functional assay.
Series [1] addresses Factor VIIa/Tissue Factor (lipidated) complex (UniProt P08709). Briefly: cell-based or functional assay.
Series [2] has as its target Ixolaris (recombinant, mature protein of 140 amino acids).

These results are taken from US20040018516A1.

A value given as a limit tells only on which side of the number the result lay.

UniProt P08709, sequence (P08709 61-466 limits assumed, chain 1 of 2): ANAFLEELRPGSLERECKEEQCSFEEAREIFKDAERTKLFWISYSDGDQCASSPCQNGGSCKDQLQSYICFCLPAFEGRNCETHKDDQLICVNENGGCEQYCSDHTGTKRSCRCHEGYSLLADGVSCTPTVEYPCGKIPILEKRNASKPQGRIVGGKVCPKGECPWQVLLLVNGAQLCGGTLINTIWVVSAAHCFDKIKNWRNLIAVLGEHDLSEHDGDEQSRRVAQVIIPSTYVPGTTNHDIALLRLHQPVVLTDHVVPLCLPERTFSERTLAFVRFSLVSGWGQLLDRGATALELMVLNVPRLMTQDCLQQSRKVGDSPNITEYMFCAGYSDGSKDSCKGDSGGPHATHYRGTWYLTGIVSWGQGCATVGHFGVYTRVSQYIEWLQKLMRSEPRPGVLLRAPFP
UniProt P08709, sequence (P13726 33-295 limits assumed, chain 2 of 2, further chain): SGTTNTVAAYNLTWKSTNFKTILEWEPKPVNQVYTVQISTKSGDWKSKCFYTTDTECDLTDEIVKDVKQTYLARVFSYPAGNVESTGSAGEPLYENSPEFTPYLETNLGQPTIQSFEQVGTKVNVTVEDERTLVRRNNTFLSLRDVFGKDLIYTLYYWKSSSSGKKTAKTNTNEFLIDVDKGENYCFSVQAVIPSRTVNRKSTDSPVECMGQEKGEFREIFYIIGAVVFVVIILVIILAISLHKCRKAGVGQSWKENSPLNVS

As to “Ixolaris (recombinant, mature protein of 140 amino acids) (from UniProt Q964Q0 27-165)”, in the series with Factor Xa, the ED50 of the increase of Factor Xa (125 pM) esterolytic activity on S2222 came to 159 pM and the increase of amidolytic activity of Factor Xa (640 pM) by Ixolaris (400 pM) was determined as 40%. In series [1], this molecule gave a Residual activity (%) of VIIa/TF (6.4 pM)/S2288 (1 mM) with 32 nM Ixolaris of 0% and an inhibition of Factor X (200 nM) activation after preincubation of Factor VIIa/TF (1 nM/0.2 pM) with 100 pM Ixolaris of 65%.
In series [1], “Ixolaris/DEGR-Factor X complex (from UniProt P00742 41-488)” yielded an inhibition of Factor X (200 nM) activation after preincubation of Factor VIIa/TF with 100 pM Ixolaris/DEGR-Factor X of over 85%.
In series [1], “full-length human TFPI (recombinant, 4900PC) (from UniProt P10646 29-304)” came in with an IC50 of inhibition of Factor VIIa/TF-induced Factor X activation, at 15 nM Factor X of 0.61 nM; an IC50 of inhibition of Factor VIIa/TF-induced Factor X activation, at 75 nM Factor X of 0.62 nM; an IC50 of inhibition of Factor VIIa/TF-induced Factor X activation, at 200 nM Factor X of 0.625 nM.

B1: γ-carboxyglutamic acid domainless Factor Xa (des-Gla-Factor Xa) (protein)
chain: KDGDQCETSPCQNQGKCKDGLGEYTCTCLEGFEGKNCELFTRKLCSLDNGDCDQFCHEEQNSVVCSCARGYTLADNGKACIPTGPYPCGKQTLERIVGGQECKDGECPWQALLINEENEGFCGGTILSEFYILTAAHCLYQAKRFKVRVGDRNTEQEEGGEAVHEVEVVIKHNRFTKETYDFDIAVLRLKTPITFRMNVAPACLPERDWAESTLMTQKTGIVSGFGRTHEKGRQSTRLKMLEVPYVDRNSCKLSSSFIITQNMFCAGYDTKQEDACQGDSGGPHVTRFKDTYFVTGIVSWGEGCARKGKYGIYTKVTAFLKWIDRSMKTRGLPKAKSHAPEVITSSPLK
B1: in series [2], the “activity of 0.4 nM des-Gla-Factor Xa plus 1.6 nM Ixolaris (control without Ixolaris: 1.4±0.12 units of Vmax)” value was 0.4 nM des-Gla-Factor Xa plus 1.6 nM Ixolaris: 2.78±0.1 units of Vmax and the “fold increase of des-Gla-Factor Xa proteolytic activity in the presence of 1.6 nM Ixolaris” value is given as “proteolytic activity increased 1.98 fold in the presence of Ixolaris”.
